The values below come from patent US20240132625A1 (KOREA ADVANCED INSTITUTE OF SCIENCE AND TECHNOLOGY, published 2024).

As a reminder, the Kd is the constant that tells how readily two partners part at equilibrium.

Data set [1] concerns the molecule itself. The experiment in a line: homodimerisation; method not stated (FIG. 2).
Data set [2] deals with Receptor-binding domain of the SARS-CoV-2 spike protein (biotinylated, Acrobio system) (SARS-CoV-2, UniProt P0DTC2 319-541). Put plainly: BLI. For orientation: BLI is a label-free optical method that tracks binding on a fibre tip over time.

Bounds are passed on as bounds.

B1: homodimeric coiled-coil (HomoCC) (designed binder)
chain: DEEQRKVVEEDLKVLEHLRRVVERKEHLVRDAYEETFDDQQREVVREKLKVLEHLEKVIERDRHLSSRPGL
For B1, binding in data set [1] was characterised by a dissociation constant (Kd) of 7.6 µM. This counts as single-digit micromolar.

B2: CV30 (antibody, V domains shown)
VH: EVQLVESGGGLIQPGGSLRLSCAASGVIVSSNYMSWVRQAPGKGLEWVSVIYSGGSTYYADSVKGRFTISRDNSKNTLYLQMNSLRAEDTAVYYCARDLDVSGGMDVWGQGTTVTVSS
VL: not shown
In data set [2], B2 had a dissociation constant Kd of at most 0.01 nM.
